{"source": "paper doi:10.1101/2024.10.01.616120", "about": "(bioRxiv, 2024)", "binders": {"B1": {"name": "p47 (natural protein)", "chain": "MAAERQEALREFVAVTGAEEDRARFFLESAGWDLQIALASFYEDGGDEDIVTISQATPSSVSRGTAPSDNRVTSFRDLIHDQDEDEEEEEGQRFYAGGSERSGQQIVGPPRKKSPNELVDDLFKGAKEHGAVAVERVTKSPGETSKPRPFAGGGYRLGAAPEEESAYVAGEKRQHSSQDVHVVLKLWKSGFSLDNGELRSYQDPSNAQFLESIRRGEVPAELRRLAHGGQVNLDMEDHRDEDFVKPKGAFKAFTGEGQKLGSTAPQVLSTSSPAQQAENEAKASSSILIDESEPTTNIQIRLADGGRLVQKFNHSHRISDIRLFIVDARPAMAATSFILMTTFPNKELADESQTLKEANLLNAVIVQRLT"}, "B2": {"name": "valosin contain protein p97/p47 interacting protein 1 (VCPIP1), wild type (enzyme)", "chain": "MSQPPPPPPPLPPPPPPPEAPQTPSSLASAAASGGLLKRRDRRILSGSCPDPKCQARLFFPASGSVSIECTECGQRHEQQQLLGVEEVTDPDVVLHNLLRNALLGVTGAPKKNTELVKVMGLSNYHCKLLSPILARYGMDKQTGRAKLLRDMNQGELFDCALLGDRAFLIEPEHVNTVGYGKDRSGSLLYLHDTLEDIKRANKSQECLIPVHVDGDGHCLVHAVSRALVGRELFWHALRENLKQHFQQHLARYQALFHDFIDAAEWEDIINECDPLFVPPEGVPLGLRNIHIFGLANVLHRPIILLDSLSGMRSSGDYSATFLPGLIPAEKCTGKDGHLNKPICIAWSSSGRNHYIPLVGIKGAALPKLPMNLLPKAWGVPQDLIKKYIKLEEDGGCVIGGDRSLQDKYLLRLVAAMEEVFMDKHGIHPSLVADVHQYFYRRTGVIGVQPEEVTAAAKKAVMDNRLHKCLLCGALSELHVPPEWLAPGGKLYNLAKSTHGQLRTDKNYSFPLNNLVCSYDSVKDVLVPDYGMSNLTACNWCHGTSVRKVRGDGSIVYLDGDRTNSRSTGGKCGCGFKHFWDGKEYDNLPEAFPITLEWGGRVVRETVYWFQYESDSSLNSNVYDVAMKLVTKHFPGEFGSEILVQKVVHTILHQTAKKNPDDYTPVNIDGAHAQRVGDVQGQESESQLPTKIILTGQKTKTLHKEELNMSKTERTIQQNITEQASVMQKRKTEKLKQEQKGQPRTVSPSTIRDGPSSAPATPTKAPYSPTTSKEKKIRITTNDGRQSMVTLKSSTTFFELQESIAREFNIPPYLQCIRYGFPPKELMPPQAGMEKEPVPLQHGDRITIEILKSKAEGGQSAAAHSAHTVKQEDIAVTGKLSSKELQEQAEKEMYSLCLLATLMGEDVWSYAKGLPHMFQQGGVFYSIMKKTMGMADGKHCTFPHLPGKTFVYNASEDRLELCVDAAGHFPIGPDVEDLVKEAVSQVRAEATTRSRESSPSHGLLKLGSGGVVKKKSEQLHNVTAFQGKGHSLGTASGNPHLDPRARETSVVRKHNTGTDFSNSSTKTEPSVFTASSSNSELIRIAPGVVTMRDGRQLDPDLVEAQRKKLQEMVSSIQASMDRHLRDQSTEQSPSDLPQRKTEVVSSSAKSGSLQTGLPESFPLTGGTENLNTETTDGCVADALGAAFATRSKAQRGNSVEELEEMDSQDAEMTNTTEPMDHS", "modifications": "labeled with BODIPY, DOL 0.23, as the labelled partner in the TR-FRET assays; unlabeled as competitor"}}, "target": "valosin-containing protein (VCP)/p97 (UniProt P55072 1-806, labeled with Terbium (CoraFluor), DOL 0.33, in the TR-FRET assays)", "sequence (P55072 whole entry)": "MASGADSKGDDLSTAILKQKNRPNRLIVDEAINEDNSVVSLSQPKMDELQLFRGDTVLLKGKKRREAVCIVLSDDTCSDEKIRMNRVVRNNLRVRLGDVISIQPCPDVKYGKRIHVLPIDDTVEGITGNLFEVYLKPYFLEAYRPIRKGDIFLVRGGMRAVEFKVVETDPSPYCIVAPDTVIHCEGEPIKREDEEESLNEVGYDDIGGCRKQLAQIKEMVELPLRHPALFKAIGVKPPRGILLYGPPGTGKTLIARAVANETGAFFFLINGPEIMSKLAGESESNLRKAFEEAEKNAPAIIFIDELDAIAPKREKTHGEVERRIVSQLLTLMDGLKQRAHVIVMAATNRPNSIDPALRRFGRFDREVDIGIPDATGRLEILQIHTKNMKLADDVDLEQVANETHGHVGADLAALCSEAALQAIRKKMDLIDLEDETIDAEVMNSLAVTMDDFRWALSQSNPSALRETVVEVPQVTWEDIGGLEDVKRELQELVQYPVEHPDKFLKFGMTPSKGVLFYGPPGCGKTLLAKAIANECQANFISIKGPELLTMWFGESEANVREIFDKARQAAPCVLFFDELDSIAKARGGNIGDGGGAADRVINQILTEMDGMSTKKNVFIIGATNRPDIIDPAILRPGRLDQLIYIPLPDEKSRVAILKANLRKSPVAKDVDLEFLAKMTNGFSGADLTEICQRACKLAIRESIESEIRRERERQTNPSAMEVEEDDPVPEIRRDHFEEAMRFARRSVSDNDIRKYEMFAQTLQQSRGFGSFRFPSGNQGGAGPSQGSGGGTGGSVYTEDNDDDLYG", "test": "FRET or BRET"}
{"binder": "B1", "values": [{"measurement": "IC50", "result": "20.4 ± 2.8", "unit": "nM"}]}
{"binder": "B2", "values": [{"measurement": "IC50", "result": "74.5 ± 13.9", "unit": "nM"}]}
